Test results as given in article PMC10100567.
pKd: −log10 of the molar value.

Biological target: high-affinity IgE receptor FcεRI on the surface of RBL-2H3 cells (rat (endogenous in RBL-2H3))
Assay: Ligand Tracer

pKd: 8.89
Substance: Cy5-labeled monoclonal mouse anti-DNP IgE (clone SPE-7) (antibody)
